Positions count from the first letter of the chain named.
What was measured:
[1] = molecular target: T1, MCSP antigen, amino acids 1553 to 2184 of matured MCSP with C-terminal avi-tag and His-tag, biotinylated (Homo sapiens (Human), UniProt Q6UVK1 1582-2213, limits assumed, biotin on the avi-tag); experiment: SPR, MCSP immobilised
T1 construct: also called recombinant MCSP
T1 sequence: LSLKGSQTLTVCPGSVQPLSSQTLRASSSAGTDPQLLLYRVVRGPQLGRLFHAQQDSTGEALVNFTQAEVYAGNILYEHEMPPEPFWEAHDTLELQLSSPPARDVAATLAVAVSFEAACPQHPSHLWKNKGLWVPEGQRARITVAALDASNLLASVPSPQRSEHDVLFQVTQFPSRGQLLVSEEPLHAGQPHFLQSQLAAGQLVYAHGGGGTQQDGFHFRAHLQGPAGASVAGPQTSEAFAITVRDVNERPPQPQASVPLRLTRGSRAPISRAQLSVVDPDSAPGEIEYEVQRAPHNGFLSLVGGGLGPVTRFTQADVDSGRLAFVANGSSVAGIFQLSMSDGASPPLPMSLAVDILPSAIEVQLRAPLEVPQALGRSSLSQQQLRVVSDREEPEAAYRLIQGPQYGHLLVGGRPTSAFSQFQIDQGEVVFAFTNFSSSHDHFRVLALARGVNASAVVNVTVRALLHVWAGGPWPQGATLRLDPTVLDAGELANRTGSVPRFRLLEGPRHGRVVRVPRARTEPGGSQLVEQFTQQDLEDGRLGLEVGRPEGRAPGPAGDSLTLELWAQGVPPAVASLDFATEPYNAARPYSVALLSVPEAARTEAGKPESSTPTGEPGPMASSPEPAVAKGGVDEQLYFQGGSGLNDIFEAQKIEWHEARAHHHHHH

[2] = molecular target: T2, human FAP avi his, biotinylated (human, UniProt Q12884 27-759, biotin on the avi-tag); experiment: SPR, bacterial supernatant;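 also: SPR at 25 °C with biotinylated human or murine FAP captured via neutravidin, aVH-containing bacterial supernatants diluted 1:3 as analyte, 600 s dissociation, blank supernatant without aVH as reference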
T2 construct: also called huFAP

[3] = molecular target: T3, murine FAP avi his, biotinylated (murine, UniProt P97321 27-761, biotin on the avi-tag); experiment: SPR, bacterial supernatant;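 also: SPR at 25 °C with biotinylated human or murine FAP captured via neutravidin, aVH-containing bacterial supernatants diluted 1:3 as analyte, 600 s dissociation, blank supernatant without aVH as reference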
T3 construct: also called muFAP; mu FAP

[4] = molecular target: T4, full-length human CEA with N-terminal SNAP tag on transfected HEK293 cells (human, UniProt P06731 35-685, SNAP tag labelled with terbium); experiment: FRET (TagLite) on hu CEA-SNAP cells
T4 construct: whole, on cells; also called hu CEA-SNAP; CEACAM5
T4 sequence (looked up): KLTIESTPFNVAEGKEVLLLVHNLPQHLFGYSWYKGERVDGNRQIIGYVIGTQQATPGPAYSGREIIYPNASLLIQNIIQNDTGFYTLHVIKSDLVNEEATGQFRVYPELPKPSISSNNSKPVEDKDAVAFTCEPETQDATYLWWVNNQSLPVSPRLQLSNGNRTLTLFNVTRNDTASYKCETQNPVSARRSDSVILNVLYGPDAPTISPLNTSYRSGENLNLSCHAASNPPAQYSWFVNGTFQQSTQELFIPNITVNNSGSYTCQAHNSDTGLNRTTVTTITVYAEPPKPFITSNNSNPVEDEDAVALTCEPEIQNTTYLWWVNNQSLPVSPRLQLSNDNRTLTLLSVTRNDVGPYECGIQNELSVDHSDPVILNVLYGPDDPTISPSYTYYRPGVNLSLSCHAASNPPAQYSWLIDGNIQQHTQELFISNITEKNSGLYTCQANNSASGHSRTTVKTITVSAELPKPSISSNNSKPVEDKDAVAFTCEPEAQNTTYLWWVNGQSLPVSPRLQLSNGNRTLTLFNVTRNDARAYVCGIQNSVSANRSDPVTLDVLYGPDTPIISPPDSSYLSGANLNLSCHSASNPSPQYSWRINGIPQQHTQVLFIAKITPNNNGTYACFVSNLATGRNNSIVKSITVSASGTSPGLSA

[5] = molecular target: T5, hu CD28-Fc (Fc-knob-avi and Fc-hole chains), biotinylated (human, biotin on the avi tag); experiment: SPR, bacterial supernatant
T5 construct: also called CD28-Fc-avi

B1: anti-MCSP aVH clone 44 (VHH)
VHH: EVQLVESGGGLVQPGGSLRLSCAASGFNIKDGYIDWVRRAPGKGTELVASIECTNGRATRYADSVKGRFTISCDTSKNTAYLQMNSLRAEDTAVYYCAYAGIGYYFYYWGQGTTVTVSS
Kd [1]: 109 nM
koff [1]: 0.0163 s⁻¹
kon [1]: 150000 M⁻¹ s⁻¹

B2: anti-MCSP aVH clone 57.1 (VHH)
VHH: EVQLVESGGGLVQPGGSLRLSCAASGFNIKQNCIEWVRRAPGKGTELVANICHDIGSTRYADSVKGRFTISADTSKNTAYLQMNSLRAEDTAVYYCAAWEQKGFNYWGQGTTVTVSS
Kd [1]: 48 nM
koff [1]: 0.0142 s⁻¹
kon [1]: 295000 M⁻¹ s⁻¹

B3: anti-FAP aVH P034.066 (VHH)
VHH: EVQLVESGGGLVQPGGSLRLSCAASGFNIKDTCIGWVRRAPGKEEELVANICGITGYTRYADSVKGRFTISADTSKNTAYLQMNSLRAEDTAVYYCAKSGGPKGYTYWGQGTTVTVSS
koff [2]: 0.000215 s⁻¹
koff [3]: 0.00253 s⁻¹

B4: anti-FAP aVH P031.033 (VHH)
VHH: B3 VHH with I54Q, T55Y, Y57Q, P102R, K103H, T106E
binding result [2]: no binding
koff [3]: 0.0106 s⁻¹

B5: anti-FAP aVH P032.056 (VHH)
VHH: EVQLVESGGGLVQPGGSLRLSCAASSFNIKDTYIGWVRRAPGKEEELVANIHCRSGYTRYADSVKGRFTISCDTSKNTAYLQMNSLRAEDTAVYYCAHSGSRYIYKYWGQGTTVTVSS
binding result [2]: no binding
koff [3]: 0.0222 s⁻¹

B6: anti-FAP aVH P034.001 (VHH)
VHH: B3 VHH with I54S, T55I, Y57A, P102H, T106R
binding result [2]: no binding
koff [3]: 0.0176 s⁻¹

B7: anti-FAP aVH P011.064 (VHH)
VHH: EVQLVESGGGLVQPGGSLRLSCAASGFNIKDTCIGWVRRAPGKEEELVANICITDGKTRYADSVKGRFTISADTSKNTAYLQMNSLRAEDTAVYYCAYYSKYIGYRYWGQGTTVTVSS
binding result [3]: no binding

B8: anti-FAP aVH P011.080 (VHH)
VHH: B7 VHH with I53Q, T54S, D55G, K57Y, Y98R, S100H, Y102G, I103V, R106Q
binding result [3]: no binding

B9: anti-FAP aVH P034.007 (VHH)
VHH: B3 VHH with I54G, T55D, Y57H, K98T, G100Y, G101T, P102V, K103Y, G104R, T106Y
koff [2]: 0.00385 s⁻¹
koff [3]: 0.0106 s⁻¹

B10: anti-FAP aVH P058.068 (VHH)
VHH: B3 VHH with G53Q, I54T, T55H, K98Y, S99K, P102G, K103R, G104Y, T106D
koff [2]: 0.00316 s⁻¹
binding result [3]: no binding

B11: anti-FAP aVH P054.035 (VHH)
VHH: EVQLVESGGGLVQPGGSLRLSCAASGFNIKDTCIGWVRRAPGKEEELVANICGSYGHTRYADSVKGRFTISADTSKNTAYLQMNSLRAEDTAVYYCASSYTVYRSYAYWGQGTTVTVSS
koff [2]: 0.0141 s⁻¹
koff [3]: 0.0151 s⁻¹

B12: anti-FAP aVH P048.019 (VHH)
VHH: B11 VHH with G53P, S54K, Y55H, H57A, S98Y, Y100G, T101N, R104N, S105R, A107K
koff [2]: 0.00547 s⁻¹
koff [3]: 0.0171 s⁻¹

B13: anti-FAP aVH P053.020 (VHH)
VHH: B11 VHH with N50R, S54Q, Y55I, H57S, S98T, A107D
koff [2]: 0.0125 s⁻¹
koff [3]: 0.0294 s⁻¹

B14: anti-FAP aVH P054.064 (VHH)
VHH: B11 VHH with Y55N, H57Y, S105G, A107D
koff [2]: 0.0161 s⁻¹
koff [3]: 0.0312 s⁻¹

B15: anti-CEA aVH P118.061 (VHH)
VHH: EVQLVESGGGLVQPGGSLRLSCAASGFNIKDTCIGWVRRAPGKEEELVANICPYHGYTRYADSVKGRFTISADTSKNTAYLQMNSLRAEDTAVYYCAIVSYVDEYYNYWGQGTTVTVSS
Kd [4]: 14.7 nM

B16: anti-CEA aVH P124.021 (VHH)
VHH: B15 VHH with N50A, H55K, I98N, S100A, V102S, D103G, E104G, Y105H
Kd [4]: 12.3 nM

B17: anti-CEA aVH P124.034 (VHH)
VHH: B15 VHH with N50A, H55I, Y57E, I98T, S100A, Y101R, V102K, D103Y, E104N, Y105Q
Kd [4]: 65.4 nM

B18: anti-CEA aVH P127.002 (VHH)
VHH: B15 VHH with N50S, P53K, H55T, Y57K, S100A, Y101S, V102G, E104G, Y105W
Kd [4]: 399 nM

B19: anti-CEA aVH P127.014 (VHH)
VHH: B15 VHH with N50A, P53T, H55K, Y57T, V99Y, Y101H, V102Y, D103Y, E104D
Kd [4]: 9.1 nM

B20: anti-CD28 aVH P020.077 (VHH)
VHH: EVQLVESGGGLVQPGGSLRLSCAASGFNIKDTCIGWVRRAPGKEEELVAGICQHYGDTRYADSVKGRFTISADTSKNTAYLQMNSLRAEDTAVYYCATDDWIYPGYIYWGQGTTVTVSS
koff [5]: 0.0117 s⁻¹

B21: anti-CD28 aVH P023.001 (VHH)
VHH: EVQLVESGGGLVQPGGSLRLSCAASGFNIKDTCIGWVRRAPGKEEELVAYICPSHGYTRYADSVKGRFTISADTSKNTAYLQMNSLRAEDTAVYYCADHKNTQWGYAYWGQGTTVTVSS
koff [5]: 0.0321 s⁻¹

B22: anti-CD28 aVH P023.039 (VHH)
VHH: EVQLVESGGGLVQPGGSLRLSCAASGFNIKDTCIGWVRRAPGKEEELVADICIKHGYTRYADSVKGRFTISADTSKNTAYLQMNSLRAEDTAVYYCADWTQSGYHYGYWGQGTTVTVSS
koff [5]: 0.0176 s⁻¹

B23: anti-CD28 aVH P023.017 (VHH)
VHH: EVQLVESGGGLVQPGGSLRLSCAASGFNIKDTCIGWVRRAPGKEEELVARICGEYGSTRYADSVKGRFTISADTSKNTAYLQMNSLRAEDTAVYYCAAQPRYYDVYDYWGQGTTVTVSS
koff [5]: 0.0175 s⁻¹

B24: anti-CD28 aVH P023.057 (VHH)
VHH: B23 VHH with R50E, E54R, Q99E, P100H, Y103P, D104G, V105Q, D107T
koff [5]: 0.0777 s⁻¹

B25: anti-MCSP aVH clone 2 (VHH)
VHH: EVQLVESGGGLVQPGGSLRLSCAASSFNIKDTYIGWVRRAPGKGTELVASIDCIYGYTRYADSVKGRFTISCDTSKNTAYLQMNSLRAEDTAVYYCAAQGYRLHYWGQGTTVTVSS
Kd [1]: 8 nM
koff [1]: 0.00339 s⁻¹
kon [1]: 458000 M⁻¹ s⁻¹

B26: anti-FAP aVH P012.090 (VHH)
VHH: EVQLVESGGGLVQPGGSLRLSCAASSFNIKDTYIGWVRRAPGKEEELVAKIFRCSDGRTRYADSVKGRFTISCDTSKNTAYLQMNSLRAEDTAVYYCANIYKTHYTYWGQGTTVTVSS
binding result [3]: no binding

B27: anti-FAP aVH P014.087 (VHH)
VHH: EVQLVESGGGLVQPGGSLRLSCAASGFNIKDTCIGWVRRAPGKEEELVANICGHIGSTRYADSVKGRFTISADTSKNTAYLQMNSLRAEDTAVYYCANSYTYSYKYWGQGTTVTVSS
binding result [3]: no binding

— patent US20260070940A1 (Hoffmann-La Roche, published 2026)
